In patent publication US20130259873A1:

Assays:
[1] = molecular target: high molecular weight melanoma associated antigen (HMW-MAA), also known as CSPG4 (human) (UniProt Q6UVK1); assay: flow cytometry, melanoma cell line WM1158 (BRAF V600E), PE-conjugated anti-mouse IgG
[2] = molecular target: high molecular weight melanoma associated antigen (HMW-MAA), also known as CSPG4 (human) (UniProt Q6UVK1); assay: flow cytometry, melanoma cell line SK-MEL-5 (BRAF V600E), PE-conjugated anti-mouse IgG
[3] = molecular target: high molecular weight melanoma associated antigen (HMW-MAA), also known as CSPG4 (human) (UniProt Q6UVK1); assay: flow cytometry, melanoma cell line 1495 (BRAF V600E), PE-conjugated anti-mouse IgG
[4] = molecular target: high molecular weight melanoma associated antigen (HMW-MAA), also known as CSPG4 (human) (UniProt Q6UVK1); assay: flow cytometry, melanoma cell line UACC-257 (BRAF V600E), PE-conjugated anti-mouse IgG
[5] = molecular target: high molecular weight melanoma associated antigen (HMW-MAA), also known as CSPG4 (human) (UniProt Q6UVK1); assay: flow cytometry, melanoma cell line SK-MEL-19 (BRAF V600E), PE-conjugated anti-mouse IgG
[6] = molecular target: high molecular weight melanoma associated antigen (HMW-MAA), also known as CSPG4 (human) (UniProt Q6UVK1); assay: flow cytometry, melanoma cell line 677 (BRAF V600E), PE-conjugated anti-mouse IgG
[7] = molecular target: high molecular weight melanoma associated antigen (HMW-MAA), also known as CSPG4 (human) (UniProt Q6UVK1); assay: flow cytometry, melanoma cell line M233 (BRAF V600E), PE-conjugated anti-mouse IgG
[8] = molecular target: high molecular weight melanoma associated antigen (HMW-MAA), also known as CSPG4 (human) (UniProt Q6UVK1); assay: flow cytometry, melanoma cell line 836 (BRAF V600E), PE-conjugated anti-mouse IgG
[9] = molecular target: high molecular weight melanoma associated antigen (HMW-MAA), also known as CSPG4 (human) (UniProt Q6UVK1); assay: flow cytometry, melanoma cell line MV3 (BRAF wild type), PE-conjugated anti-mouse IgG
[10] = molecular target: high molecular weight melanoma associated antigen (HMW-MAA), also known as CSPG4 (human) (UniProt Q6UVK1); assay: flow cytometry, melanoma cell line SK-MEL-37 (BRAF V600E), PE-conjugated anti-mouse IgG
[11] = molecular target: high molecular weight melanoma associated antigen (HMW-MAA), also known as CSPG4 (human) (UniProt Q6UVK1); assay: flow cytometry, melanoma cell line 1287 (BRAF V600E), PE-conjugated anti-mouse IgG
[12] = molecular target: high molecular weight melanoma associated antigen (HMW-MAA), also known as CSPG4 (human) (UniProt Q6UVK1); assay: flow cytometry, melanoma cell line Mel624 (BRAF V600E), PE-conjugated anti-mouse IgG
[13] = molecular target: high molecular weight melanoma associated antigen (HMW-MAA), also known as CSPG4 (human) (UniProt Q6UVK1); assay: flow cytometry, melanoma cell line 526 (BRAF V600E), PE-conjugated anti-mouse IgG
[14] = molecular target: high molecular weight melanoma associated antigen (HMW-MAA), also known as CSPG4 (human) (UniProt Q6UVK1); assay: flow cytometry, melanoma cell line Colo38 (BRAF V600E), PE-conjugated anti-mouse IgG
[15] = molecular target: high molecular weight melanoma associated antigen (HMW-MAA), also known as CSPG4 (human) (UniProt Q6UVK1); assay: flow cytometry, melanoma cell line M21 (BRAF V600E), PE-conjugated anti-mouse IgG
[16] = molecular target: high molecular weight melanoma associated antigen (HMW-MAA), also known as CSPG4 (human) (UniProt Q6UVK1); assay: flow cytometry, melanoma cell line SK-MEL-28 (BRAF V600E), PE-conjugated anti-mouse IgG

Sequence of high molecular weight melanoma associated antigen (HMW-MAA), also known as CSPG4 (human) (Q6UVK1 30-2322): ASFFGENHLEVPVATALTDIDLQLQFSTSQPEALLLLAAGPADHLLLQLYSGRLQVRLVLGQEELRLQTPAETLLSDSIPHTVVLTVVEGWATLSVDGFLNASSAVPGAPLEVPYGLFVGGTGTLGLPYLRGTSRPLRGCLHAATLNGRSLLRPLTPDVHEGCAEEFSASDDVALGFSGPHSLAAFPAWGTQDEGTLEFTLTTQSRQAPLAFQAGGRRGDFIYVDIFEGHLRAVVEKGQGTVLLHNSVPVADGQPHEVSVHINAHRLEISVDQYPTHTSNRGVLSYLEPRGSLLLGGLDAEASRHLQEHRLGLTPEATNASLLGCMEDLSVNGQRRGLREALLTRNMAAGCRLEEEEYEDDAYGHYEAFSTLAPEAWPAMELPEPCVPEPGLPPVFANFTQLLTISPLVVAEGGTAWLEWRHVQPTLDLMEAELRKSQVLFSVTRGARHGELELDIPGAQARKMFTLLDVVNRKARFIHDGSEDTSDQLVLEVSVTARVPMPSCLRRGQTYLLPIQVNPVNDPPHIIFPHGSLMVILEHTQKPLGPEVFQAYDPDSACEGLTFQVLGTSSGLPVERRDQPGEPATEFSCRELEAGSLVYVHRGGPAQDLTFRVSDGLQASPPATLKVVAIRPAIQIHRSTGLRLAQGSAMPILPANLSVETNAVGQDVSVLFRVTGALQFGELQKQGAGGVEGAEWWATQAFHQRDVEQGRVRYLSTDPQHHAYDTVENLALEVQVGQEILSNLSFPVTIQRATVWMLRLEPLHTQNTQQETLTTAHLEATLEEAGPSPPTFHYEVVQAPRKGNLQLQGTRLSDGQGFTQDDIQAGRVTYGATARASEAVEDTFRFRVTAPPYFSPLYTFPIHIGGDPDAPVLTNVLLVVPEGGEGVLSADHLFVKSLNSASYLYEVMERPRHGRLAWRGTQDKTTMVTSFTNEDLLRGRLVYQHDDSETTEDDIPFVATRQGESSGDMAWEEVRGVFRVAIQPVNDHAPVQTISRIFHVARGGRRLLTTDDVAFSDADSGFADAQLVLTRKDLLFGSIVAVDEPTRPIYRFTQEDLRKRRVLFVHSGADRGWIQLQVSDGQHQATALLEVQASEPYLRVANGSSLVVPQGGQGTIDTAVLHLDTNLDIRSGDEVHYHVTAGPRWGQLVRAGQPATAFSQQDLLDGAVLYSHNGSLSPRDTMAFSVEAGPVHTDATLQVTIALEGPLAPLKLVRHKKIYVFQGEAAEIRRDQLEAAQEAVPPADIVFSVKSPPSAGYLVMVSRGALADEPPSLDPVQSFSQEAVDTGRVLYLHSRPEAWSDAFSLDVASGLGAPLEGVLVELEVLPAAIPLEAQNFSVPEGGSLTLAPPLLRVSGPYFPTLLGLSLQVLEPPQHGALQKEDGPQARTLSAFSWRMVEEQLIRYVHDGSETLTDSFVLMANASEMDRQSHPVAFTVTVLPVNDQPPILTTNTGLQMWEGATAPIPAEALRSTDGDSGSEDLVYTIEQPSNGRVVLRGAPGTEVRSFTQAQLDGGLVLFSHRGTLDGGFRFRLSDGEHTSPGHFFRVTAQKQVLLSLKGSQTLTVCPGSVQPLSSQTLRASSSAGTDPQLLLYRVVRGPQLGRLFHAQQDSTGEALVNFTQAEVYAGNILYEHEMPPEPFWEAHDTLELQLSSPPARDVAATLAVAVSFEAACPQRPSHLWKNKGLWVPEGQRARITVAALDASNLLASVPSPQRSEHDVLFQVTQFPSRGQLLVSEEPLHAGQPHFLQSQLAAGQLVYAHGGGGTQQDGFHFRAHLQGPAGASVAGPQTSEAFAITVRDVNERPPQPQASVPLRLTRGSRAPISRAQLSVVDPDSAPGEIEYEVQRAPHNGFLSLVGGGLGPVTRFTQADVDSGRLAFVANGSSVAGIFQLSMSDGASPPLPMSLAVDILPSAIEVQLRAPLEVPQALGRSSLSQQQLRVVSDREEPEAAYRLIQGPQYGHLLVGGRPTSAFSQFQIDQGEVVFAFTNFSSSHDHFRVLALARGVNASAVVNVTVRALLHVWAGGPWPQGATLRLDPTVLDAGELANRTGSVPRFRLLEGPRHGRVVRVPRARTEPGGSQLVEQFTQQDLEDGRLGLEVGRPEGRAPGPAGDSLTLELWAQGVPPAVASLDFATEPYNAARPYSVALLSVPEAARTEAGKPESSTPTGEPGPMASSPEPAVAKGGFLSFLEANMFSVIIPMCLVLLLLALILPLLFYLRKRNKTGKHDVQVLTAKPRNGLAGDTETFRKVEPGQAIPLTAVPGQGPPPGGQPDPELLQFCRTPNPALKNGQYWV

% of cells that express CSPG4 [1]: 99.8%
MFI [1]: 586
% of cells that express CSPG4 [2]: 99.6%
MFI [2]: 275
% of cells that express CSPG4 [3]: 80%
MFI [3]: 437
% of cells that express CSPG4 [4]: 99.9%
MFI [4]: 890
% of cells that express CSPG4 [5]: 99.9%
MFI [5]: 607
% of cells that express CSPG4 [6]: 93%
MFI [6]: 55.8
% of cells that express CSPG4 [7]: 40.8%
MFI [7]: 274
% of cells that express CSPG4 [8]: 99.4%
MFI [8]: 1210
% of cells that express CSPG4 [9]: 99.7%
MFI [9]: 581
% of cells that express CSPG4 [10]: 99.9%
MFI [10]: 280
% of cells that express CSPG4 [11]: 99.9%
MFI [11]: 117
% of cells that express CSPG4 [12]: 88.2%
MFI [12]: 130
% of cells that express CSPG4 [13]: 78.4%
MFI [13]: 20.2
% of cells that express CSPG4 [14]: 99.8%
MFI [14]: 493
% of cells that express CSPG4 [15]: 99.9%
MFI [15]: 917
% of cells that express CSPG4 [16]: 99.8%
MFI [16]: 572
Substance: HMW-MAA (CSPG4)-specific mouse mAb 225.28 (antibody)
